Experimental data reported in US20240343803A1 (SHANDONG SIMCERE BIOPHARMACEUTICAL, published 2024).

B1: TIGIT-070-H1L1 (antibody, V domains shown)
VH: EVQLVQSGAEVKKPGASVKVSCKASGYTFTNYYMHWVRQAPGQRLEWMGRIDPDSGGSKYNEKFKSRVTITVDKSASTAYMELSSLRSEDTAVYYCAREGHYGFYSDYWGQGTTVTVSS
VL: DIQMTQSPSSLSASVGDRVTITCRVSENIYSYLAWYQQKPGKSPKLLIYNAKTLAEGVPSRFSGSGSGTDFTLTISSLQPEDFATYYCQHHYGNPLTFGPGTKVDIK
notes: Humanized anti-TIGIT antibody
B2: PVRIG-A105 (VHH)
VHH: EVQLVESGGGLVQAGGSLRLSCAASGRTFDRHTMTWFRQAPGKEREFVATASRIPGDTYYSHSVKGRFTISRDNAKNTVYLQLNNLKPEDTAVYYCAATSAYCSEVDCYEKGSWYDNWGQGIQVTVSS
notes: tested as VHH-hinge-CH2-CH3 (human IgG1-Fc); not shown: human IgG1 hinge-CH2-CH3

Key:
[1] = molecular target: T1, Fusion protein of extracellular domain of human TIGIT and His-tag (human TIGIT ECD-his) (human); assay: BIAcore; KD ratio to TIGIT-CHI-070
T1 chain: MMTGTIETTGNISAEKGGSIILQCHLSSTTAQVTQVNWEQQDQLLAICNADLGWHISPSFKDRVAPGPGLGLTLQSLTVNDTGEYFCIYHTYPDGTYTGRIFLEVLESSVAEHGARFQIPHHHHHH

[2] = molecular target: T2, human PVRIG-his (AcroBiosystems, Cat NO. PVG-H52H4) (human, UniProt Q6DKI7 41-171, limits assumed); assay: competition ELISA on coated human PVRIG-his; blocked ligand human PVRL2-mFc
T2 construct: treated as the same protein; also called human PVRIG-His protein; Human PVRIG-His, Acro C227P1-9ARF1-T4
T2 sequence (looked up): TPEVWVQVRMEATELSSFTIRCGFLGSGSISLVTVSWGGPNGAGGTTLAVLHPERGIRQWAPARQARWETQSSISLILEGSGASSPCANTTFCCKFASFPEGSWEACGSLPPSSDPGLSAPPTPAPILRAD
Protocol: The ELISA plate was pre-coated with 100 μL/well of 0.5 μg/mL human PVRIG-his protein (AcroBiosystems, Cat NO. PVG-H52H4). The tested anti-PVRIG antibodies were diluted from the highest concentration of 16 nM (two-fold concentration). The diluted antibodies were mixed with 18 ng/ml human PVRL2-mFc (AcroBiosystems, Cat NO. CD2-H5257) in equal volume, added into the plate (100 μL/well), and incubated with shaking at room temperature for 2.0 hours. […] A HRP substrate, TMB (Thermo, Cat NO. 34029) was added into wells after washing the plate again for color development. After adding a termination solution to terminate the reaction, the absorbance value was read by a microplate reader (MD i3×). An inhibiting curve was drawn with concentration of antibodies as the abscissa and the corresponding OD value as the ordinate. The IC50 value was calculated by using a Four Parameter Logistic Fit (GraphPadPrism9). The smaller the IC50 value, the stronger the ability of the antibodies inhibits the binding between PVRIG and PVRL2. The positive and negative controls are the same as in Example 8.
The methods refer to Example 11. The inhibiting activity of the humanized antibodies was normalized to the corresponding parental antibodies. If the percentage value is higher than 100%, the inhibiting effect of humanized antibodies is better than that of parental antibodies.

[3] = molecular target: T3, human PVRIG on FlpinCHO-PVRIG cells (human, UniProt Q6DKI7 41-326); assay: FACS, FlpinCHO-PVRIG cells
T3 construct: whole, on cells; also called FlpinCHO-hPVRIG; FlpinCHO-human PVRIG
T3 sequence (looked up): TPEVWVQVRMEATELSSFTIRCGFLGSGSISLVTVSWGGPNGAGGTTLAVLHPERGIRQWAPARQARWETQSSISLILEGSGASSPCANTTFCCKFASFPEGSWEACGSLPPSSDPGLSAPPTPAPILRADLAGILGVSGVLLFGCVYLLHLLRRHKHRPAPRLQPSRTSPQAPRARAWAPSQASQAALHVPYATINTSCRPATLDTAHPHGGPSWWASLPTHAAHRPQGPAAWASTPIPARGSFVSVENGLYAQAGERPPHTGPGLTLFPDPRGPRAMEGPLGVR
Protocol: After discarding the cell culture medium, the cells were rinsed with PBS and digested for 8-10 minutes by adding 1 mL Versene (Gibico, 15040-066). The Ham's F12 (Gibico, 21127-022) complete medium containing 10% FBS was then added to terminate the digestion and acquire cell suspension. After counting with a cell counter (Beckman Coulter, Vi-CELL), an appropriate amount of cell suspension was centrifuged at 350×g to remove the supernatant, washed twice with PBS, stained with Zombie violet (Biolegend, 423114) and incubated at room temperature for 20 minutes. After incubation, the cells were added with staining buffer (2% FBS+PBS) to stop staining, centrifuged at 350×g to remove the supernatant, washed twice and resuspended with staining buffer to a density of 2×10⁶ cells/mL. The cells were plated into a 96-well plate (50 μL of cell suspension per well) for further use. The antibodies were diluted from the highest concentration of 46 nM (two-fold concentration) with staining buffer by 3.3-fold serial dilution. The diluted antibodies were added to the well containing 50 μL of cell suspension. The plate was placed on a microplate shaker at 400 rpm for 1 minute to fully mix the antibodies and cells, and then incubated at 4° C. for 30 minutes. After the incubation, the cells were washed twice with staining buffer (200 μL per well) and centrifuged at 350×g for 5 minutes to discard the supernatant. The PE goat anti-human IgG Fc antibody (ebioscience, 12-4998-82) was diluted 250 times with staining buffer, added into the washed wells (100 μL per well), mixed well, and stained at 4° C. for 30 minutes. After staining, the cells were washed twice with staining buffer, finally resuspended with 200 μL staining buffer and analyzed by flow cytometry (BD, Canto II). The stronger the signal, the stronger the ability of the antibodies binds to PVRIG. An antibody binding curve was drawn with concentration of antibodies as the abscissa and the corresponding Mean Fluorescence Intensity (MFI) as the ordinate. The AUC value of the curve was calculated by using a Four Parameter Logistic Fit (GraphPadPrism9).

Binder	Fold change vs chimeric antibodies (KD) [1]	IC50 (read off the curve) [2]	EC50 (read off the curve) [3]
B1	0.59 fold		
B2		~700 pM	~400 pM
